According to patent US20080268487:
Like-named read-outs stand apart in the source and are kept apart here.

Key:
GST-Rab8B [GST: P08515] [1] = test system: GST-Rab8B [GST: P08515]
GST-Rab8A (dog Rab8A) = GST-Rab8A (dog Rab8A) (UniProt P61007)
GST-Rab10 (human Rab10) [2] = test system: T1, GST-Rab10 (human Rab10)
T1 sequence: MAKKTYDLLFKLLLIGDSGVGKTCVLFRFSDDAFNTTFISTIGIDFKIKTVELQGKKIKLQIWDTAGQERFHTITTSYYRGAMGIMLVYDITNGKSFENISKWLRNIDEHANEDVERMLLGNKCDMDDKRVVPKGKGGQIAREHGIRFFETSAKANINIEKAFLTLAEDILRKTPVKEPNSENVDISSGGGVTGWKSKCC

GST-Rab2A [GST: P08515] [3] = test system: GST-Rab2A [GST: P08515]
GST-Rab2A [GST: P08515] [4] = target: GST-Rab2A [GST: P08515]; remark: listed apart in the source
[5] = target: GST-Rab14 (mouse Rab14), Q91V41
GST-Rab14 (mouse Rab14), Q91V41, sequence (Q91V41 whole entry, looked up): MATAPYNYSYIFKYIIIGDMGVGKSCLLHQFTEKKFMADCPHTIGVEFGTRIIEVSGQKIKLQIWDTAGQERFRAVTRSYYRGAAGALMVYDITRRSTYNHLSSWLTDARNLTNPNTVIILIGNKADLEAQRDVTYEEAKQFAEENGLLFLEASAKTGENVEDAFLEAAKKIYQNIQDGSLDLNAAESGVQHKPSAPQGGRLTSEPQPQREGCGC

GST-Rab10 (human Rab10) [6] = target: T2, GST-Rab10 (human Rab10)
T2 chain: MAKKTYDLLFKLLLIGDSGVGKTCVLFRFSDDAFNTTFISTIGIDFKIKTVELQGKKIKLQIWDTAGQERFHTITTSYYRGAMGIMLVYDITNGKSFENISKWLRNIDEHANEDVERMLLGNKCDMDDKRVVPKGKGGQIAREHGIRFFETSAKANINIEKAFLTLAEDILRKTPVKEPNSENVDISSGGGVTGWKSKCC

GST-Rab8B [GST: P08515] [7] = target: GST-Rab8B [GST: P08515]; remark: listed apart in the source
[8] = target: T3, GST-Rab8A (dog Rab8A), P61007
T3 chain: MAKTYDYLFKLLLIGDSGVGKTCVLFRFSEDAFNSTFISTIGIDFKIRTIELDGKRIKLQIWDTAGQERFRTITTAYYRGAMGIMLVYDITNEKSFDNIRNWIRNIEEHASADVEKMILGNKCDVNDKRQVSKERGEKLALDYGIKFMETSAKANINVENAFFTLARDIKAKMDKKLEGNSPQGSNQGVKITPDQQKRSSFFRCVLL

## GST-GAP Arg/Lys (GST-GAP domain with Arg973 mutated to Lys)
GST-Rab8B [GST: P08515] [1]
  hydrolysis of Rab-bound [α^32P]GTP to GDP (thin layer chromatography): For each of Rab 2A, 8A, 8B, 10, and 14, the GAP Arg/Lys construct exhibited no significant activity
GST-Rab8A (dog Rab8A)
  hydrolysis of Rab-bound [α^32P]GTP to GDP (thin layer chromatography): For each of Rab 2A, 8A, 8B, 10, and 14, the GAP Arg/Lys construct exhibited no significant activity
GST-Rab10 (human Rab10) [2]
  hydrolysis of Rab-bound [α^32P]GTP to GDP (thin layer chromatography): For each of Rab 2A, 8A, 8B, 10, and 14, the GAP Arg/Lys construct exhibited no significant activity
GST-Rab2A [GST: P08515] [3]
  hydrolysis of Rab-bound [α^32P]GTP to GDP (thin layer chromatography): For each of Rab 2A, 8A, 8B, 10, and 14, the GAP Arg/Lys construct exhibited no significant activity

B1: AS160 GAP domain-GST fusion protein (protein)
chain: GASRDELQSRKVKLDYEEVGACQKEVLITWDKKLLNCRAKIRCDMEDIHTLLKEGVPKSRRGEIWQFLALQYRLRHRLPNKQQPPDISYKELLKQLTAQQHAILVDLGRTFPTHPYFSVQLGPGQLSLFNLLKAYSLLDKEVGYCQGISFVAGVLLLHMSEEQAFEMLKFLMYDLGFRKQYRPDMMSLQIQMYQLSRLLHDYHRDLYNHLEENEISPSLYAAPWFLTLFASQFSLGFVARVFDIIFLQGTEVIFKVALSLLSSQETLIMECESFENIVEFLKNTLPDMNTSEMEKIITQVFEMDISKQLHAYEVEYHVLQDELQESSYSCEDSETLEKLERANSQLKRQNMDLLEKLQVAHTKIQALESNLENLLTRETKMKSLIRTLEQEKMAYQKTVEQLRKLLPADALANCDLLLRDLNCNPNNKAKIGNKP
GST-Rab2A [GST: P08515] [4]
  hydrolysis of Rab-bound [α^32P]GTP to GDP (thin layer chromatography): the GAP domain markedly stimulated the hydrolysis of [α^32P]GTP bound to Rabs 2A, 8A, 8B, 10, and 14
[5]
  GAP activity in the presence of a 10-fold molar excess of GST as carrier protein: the presence of excess GST did not inhibit the GAP activity
  GAP assay with GST-GAP domain attached to glutathione beads: the same molar amount of the GST-GAP domain attached to glutathione beads showed the expected activity against Rab14
  hydrolysis of Rab-bound [α^32P]GTP to GDP (thin layer chromatography): the GAP domain markedly stimulated the hydrolysis of [α^32P]GTP bound to Rabs 2A, 8A, 8B, 10, and 14
  kcat/Km: a kcat/Km value of 0.2 min^-1 µmolar^-1
  rate of hydrolysis of the bound [α^32P]GTP with 130 nM GST-GAP domain: approximately 3% per minute with 130 nM GST-GAP domain
GST-Rab10 (human Rab10) [6]
  hydrolysis of Rab-bound [α^32P]GTP to GDP (thin layer chromatography): the GAP domain markedly stimulated the hydrolysis of [α^32P]GTP bound to Rabs 2A, 8A, 8B, 10, and 14
GST-Rab8B [GST: P08515] [7]
  hydrolysis of Rab-bound [α^32P]GTP to GDP (thin layer chromatography): the GAP domain markedly stimulated the hydrolysis of [α^32P]GTP bound to Rabs 2A, 8A, 8B, 10, and 14
[8]
  hydrolysis of Rab-bound [α^32P]GTP to GDP (thin layer chromatography): the GAP domain markedly stimulated the hydrolysis of [α^32P]GTP bound to Rabs 2A, 8A, 8B, 10, and 14

B2: recombinant GAP domain without GST (protein)
chain: GASRDELQSRKVKLDYEEVGACQKEVLITWDKKLLNCRAKIRCDMEDIHTLLKEGVPKSRRGEIWQFLALQYRLRHRLPNKQQPPDISYKELLKQLTAQQHAILVDLGRTFPTHPYFSVQLGPGQLSLFNLLKAYSLLDKEVGYCQGISFVAGVLLLHMSEEQAFEMLKFLMYDLGFRKQYRPDMMSLQIQMYQLSRLLHDYHRDLYNHLEENEISPSLYAAPWFLTLFASQFSLGFVARVFDIIFLQGTEVIFKVALSLLSSQETLIMECESFENIVEFLKNTLPDMNTSEMEKIITQVFEMDISKQLHAYEVEYHVLQDELQESSYSCEDSETLEKLERANSQLKRQNMDLLEKLQVAHTKIQALESNLENLLTRETKMKSLIRTLEQEKMAYQKTVEQLRKLLPADALANCDLLLRDLNCNPNNKAKIGNKP
[5]
  GAP activity compared with that of GST-GAP domain: no difference was observed

B3: recombinant full-length FLAG-tagged AS160 (protein)
chain: MEPPSCIQDEPFPHPLEPEPGVSAQPGPGKPSDKRFRLWYVGGSCLDHRTTLPMLPWLMAEIRRRSQKPEAGGCGAPAAREVILVLSAPFLRCVPAPGAGASGGTSPSATQPNPAVFIFEHKAQHISRFIHNSHDLTYFAYLIKAQPDDPESQMACHVFRATDPSQVPDVISSIRQLSKAAMKEDAKPSKDNEDAFYNSQKFEVLYCGKVTVTHKKAPSSLIDDCMEKFSLHEQQRLKIQGEQRGPDPGEDLADLEVVVPGSPGDCLPEEADGTDTHLGLPAGASQPALTSSRVCFPERILEDSGFDEQQEFRSRCSSVTGVQRRVHEGSQKSQPRRRHASAPSHVQPSDSEKNRTMLFQVGRFEINLISPDTKSVVLEKNFKDISSCSQGIKHVDHFGFICRESPEPGLSQYICYVFQCASESLVDEVMLTLKQAFSTAAALQSAKTQIKLCEACPMHSLHKLCERIEGLYPPRAKLVIQRHLSSLTDNEQADIFERVQKMKPVSDQEENELVILHLRQLCEAKQKTHVHIGEGPSTISNSTIPENATSSGRFKLDILKNKAKRSLTSSLENIFSRGANRMRGRLGSVDSFERSNSLASEKDYSPGDSPPGTPPASPPSSAWQTFPEEDSDSPQFRRRAHTFSHPPSSTKRKLNLQDGRAQGVRSPLLRQSSSEQCSNLSSVRRMYKESNSSSSLPSLHTSFSAPSFTAPSFLKSFYQNSGRLSPQYENEIRQDTASESSDGEGRKRTSSTCSNESLSVGGTSVTPRRISWRQRIFLRVASPMNKSPSAMQQQDGLDRNELLPLSPLSPTMEEEPLVIFLSGEDDPEKIEERKKSKELRSLWRKAIHQQILLLRMEKENQKLEGASRDELQSRKVKLDYEEVGACQKEVLITWDKKLLNCRAKIRCDMEDIHTLLKEGVPKSRRGEIWQFLALQYRLRHRLPNKQQPPDISYKELLKQLTAQQHAILVDLGRTFPTHPYFSVQLGPGQLSLFNLLKAYSLLDKEVGYCQGISFVAGVLLLHMSEEQAFEMLKFLMYDLGFRKQYRPDMMSLQIQMYQLSRLLHDYHRDLYNHLEENEISPSLYAAPWFLTLFASQFSLGFVARVFDIIFLQGTEVIFKVALSLLSSQETLIMECESFENIVEFLKNTLPDMNTSEMEKIITQVFEMDISKQLHAYEVEYHVLQDELQESSYSCEDSETLEKLERANSQLKRQNMDLLEKLQVAHTKIQALESNLENLLTRETKMKSLIRTLEQEKMAYQKTVEQLRKLLPADALANCDLLLRDLNCNPNNKAKIGNKP
GST-Rab2A [GST: P08515] [4]
  GAP assay with protein attached to anti-FLAG beads: The full-length AS160 exhibited no significant activity above that of the Arg973Lys mutant with Rabs 2A, 8A, and 14 as substrates
[5]
  GAP assay with protein attached to anti-FLAG beads: The full-length AS160 exhibited no significant activity above that of the Arg973Lys mutant with Rabs 2A, 8A, and 14 as substrates
[8]
  GAP assay with protein attached to anti-FLAG beads: The full-length AS160 exhibited no significant activity above that of the Arg973Lys mutant with Rabs 2A, 8A, and 14 as substrates
